# Where two headings read alike, the source gives them in different places.
# T1: human MICA002 on cells (human)
# T1 chain: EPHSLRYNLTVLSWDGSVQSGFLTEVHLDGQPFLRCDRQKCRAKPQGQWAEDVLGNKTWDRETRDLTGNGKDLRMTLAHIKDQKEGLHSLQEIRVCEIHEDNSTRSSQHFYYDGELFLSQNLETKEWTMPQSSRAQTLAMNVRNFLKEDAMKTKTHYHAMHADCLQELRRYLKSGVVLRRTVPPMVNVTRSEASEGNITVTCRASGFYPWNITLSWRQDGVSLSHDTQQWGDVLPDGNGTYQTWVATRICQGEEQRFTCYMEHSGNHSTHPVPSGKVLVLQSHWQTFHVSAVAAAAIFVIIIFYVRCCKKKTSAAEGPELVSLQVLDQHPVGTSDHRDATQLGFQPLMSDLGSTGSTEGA
# Legend:
# human MICA008 on cells [1] = target: T2, human MICA008 on cells (human); assay: flow cytometry, CHO-MICA008 cells
# T2 construct: whole, on cells; also called CHO-MICA008; C1R-MICA008
# human MICB005 on cells [2] = target: T3, human MICB005 on cells (human); assay: flow cytometry on CHO-MICB005 cells; column HSA_2w (2 weeks in human serum at 37 C)
# T3 construct: whole, on cells; also called CHO-MICB005; C1R-MICB005
# Procedure: (§1) The plate was centrifuged, and cells were washed with PBS three times. […] After incubation for 30 minutes at room temperature, cells were washed with PBS twice. Signals of APC were determined by flow cytometry (Attune™ CytPix™, ThermoFisher) within the population of live cells (viability dye PI negative).
# (§2) The EC50 values were calculated based on non-linear fitting curves by GraphPad Prism software.
# human MICA004 on cells [3] = target: T4, human MICA004 on cells (human); assay: flow cytometry, CHO-MICA004 cells
# T4 construct: whole, on cells; also called CHO-MICA004; C1R-MICA004
# Procedure: IgG1 is an isotype control (IgG). The antibody binding signals of APC (gMFI) to MICA/B were measured by flow cytometry.
# (§3) After an incubation time of 30 minutes, the plate was centrifuged and cells were washed with PBS three times. […] After mixing for 30 minutes at room temperature, cells were washed with PBS twice. Fluorescent signal was detected and quantified by flow cytometry (Attune™ CytPix™, ThermoFisher) within the population of live cells (viability dye PI negative).
# human MICA008 on cells [4] = target: T2, human MICA008 on cells; assay: flow cytometry, HeLa cells (MICA008)
# human MICA002 on cells [5] = target: T1, human MICA002 on cells; assay: flow cytometry, CHO-MICA002 cells
# Procedure: CHO-MICA002 cells were incubated with titrated anti-MICA/B antibodies and then APC-labeled anti-human Fc antibody. […] The antibody binding signals of APC (gMFI) to MICA/B were measured by flow cytometry.
# as §3
# human MICA004 on cells [6] = target: T4, human MICA004 on cells; assay: flow cytometry, CHO-MICA004 cells; remark: listed apart in the source
# human MICB005 on cells [7] = target: T3, human MICB005 on cells; assay: flow cytometry on CHO-MICB005 cells; column Control_2w (control of the 2-week experiment)
# Procedure: as §1, §2
# human MICB005 on cells [8] = target: T3, human MICB005 on cells; assay: flow cytometry on CHO-MICB005 cells; column Control_1w (control of the 1-week experiment)
# Procedure: as §1, §2
# human MICA002 on cells [9] = target: T1, human MICA002 on cells; assay: flow cytometry, CHO-MICA002 cells
# human MICB005 on cells [10] = target: T3, human MICB005 on cells; assay: flow cytometry on CHO-MICB005 cells; column HSA_1w (1 week in human serum at 37 C)
# Procedure: as §1, §2
# human MICB005 on cells [11] = target: T3, human MICB005 on cells; assay: flow cytometry, CHO-MICB005 cells
# human MICA008 on cells [12] = target: T2, human MICA008 on cells; assay: flow cytometry, CHO-MICA008 cells; remark: listed apart in the source
# human MICA002 on cells [13] = target: T1, human MICA002 on cells; assay: flow cytometry, CHO-MICA002 cells
# human MICA004 on cells [14] = target: T4, human MICA004 on cells; assay: flow cytometry, CHO-MICA004 cells; remark: listed apart in the source
# T4 sequence (Q29983 whole entry): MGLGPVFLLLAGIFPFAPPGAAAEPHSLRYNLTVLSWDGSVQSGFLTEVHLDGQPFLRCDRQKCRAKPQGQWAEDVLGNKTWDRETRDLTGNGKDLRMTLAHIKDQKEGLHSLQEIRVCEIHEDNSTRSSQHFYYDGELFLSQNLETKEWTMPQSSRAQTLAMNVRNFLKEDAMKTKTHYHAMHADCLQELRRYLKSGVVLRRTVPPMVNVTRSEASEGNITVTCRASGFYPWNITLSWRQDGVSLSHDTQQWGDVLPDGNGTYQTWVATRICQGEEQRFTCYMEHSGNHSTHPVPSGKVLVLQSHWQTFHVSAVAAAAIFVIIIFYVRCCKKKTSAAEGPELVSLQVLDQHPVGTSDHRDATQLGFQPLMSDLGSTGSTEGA
# T2 sequence (Q29983 whole entry): as above
EC50 (human MICA008 on cells [1]) [µg/mL],EC50 (human MICB005 on cells [2]) [µg/mL],EC50 (human MICA004 on cells [3]) [µg/mL],EC50 (human MICA008 on cells [4]) [µg/mL],EC50 (human MICA002 on cells [5]) [µg/mL],EC50 (human MICA004 on cells [6]) [µg/mL],EC50 (human MICB005 on cells [7]) [µg/mL],EC50 (human MICB005 on cells [8]) [µg/mL],EC50 (human MICA002 on cells [9]) [µg/mL],EC50 (human MICB005 on cells [10]) [µg/mL],EC50 (human MICB005 on cells [11]) [µg/mL],EC50 (human MICA008 on cells [12]) [µg/mL],EC50 (human MICA002 on cells [13]) [µg/mL],EC50 (human MICA004 on cells [14]) [µg/mL],Binder
0.272,0.784,0.443,0.651,0.352,0.89,0.956,0.836,0.857,0.804,–,–,–,–,"3F9 (antibody, human IgG1, kappa, V domains shown, also called benchmark 3F9) VH: QVQLVESGGGLVKPGGSLRLSCAASGFTFSNYAMSWIRQAPGKGLEWVSYISPGGDYIYYADSVKGRFTISRDNAKNSLYLQMNSLRAEDTAVYYCTTDRRHYGSYAMDYWGQGTLVTVSS VL: DIVMTQSPLSLPVTPGEPASISCRSSKSLLHSNLNTYLYWFLQKPGQSPQILIYRMSNLASGVPDRFSGSGSGTAFTLKISRVEAEDVGVYYCMQHLEYPFTFGPGTKLEIKR"
0.06,0.287,0.157,0.133,0.19,0.193,0.264,0.237,0.301,0.229,0.142,0.04,0.209,0.051,"1D5 (antibody, human IgG1, kappa, V domains shown, also called ID5) VH: EIQLQQSGPELVKPGASVKVSCKASGYAFTSQNIYWVKQSHGKSLEWIGYIEPYNVVPMYNPKFKGKATLTVDKSSSSAYIHLNSLTSEDSAIYYCARSGSSNFDYWGQGTTLTVSS VL: EIILTQSPTTMAASPGEKITITCSASSSISSHYLHWYQQKSGFSPKLLIYRTSNLASGVPARFSGSGSGTSYSLTIGTMEAEDVATYYCQQGSSLPLTFGAGTKVEIKR"

# From patent US20250368742A1 (D2M BIOTHERAPEUTICS, published 2025)
